Data on 6 sequences can be found in a protein production outcome set (Wang et al. 2014).

The nature of this series: label from the status in PepcDB records.

For “MAAPMEVAVCTDSAAPMWSCIVWELHSGANLLTYRGGQAGPRGLALLNGEYLLAAQLGKNYISAWELQRKDQLQQKIMCPGPVTCLTASPNGLYVLAGVAESIHLWEVSTGNLLVILSRHYQDVSCLQFTGDSSHFISGGKDCLVLVWSLCSVLQADPSRIPAPRHVWSHHTLPITDLHCGFGGPLARVATSSLDQTVKLWEVSSGELLLSVLFDVSIMAVTMDLAEHHMFCGGSEGSIFQVDLFTWPGQRERSFHPEQDAGKVFKGHRNQVTCLSVSTDGSVLLSGSHDETVRLWDVQSKQCIRTVALKGPVTNAAILLAPVSMLSSDFRPSLPLPHFNKHLLGAEHGDEPRHGGLTLRLGLHQQGSEPSYLDRTEQLQAVLCSTMEKSVLGGQDQLRVRVTELEDEVRNLRKINRDLFDFSTRFITRPAK”, the protein production entry is reported as “failed”.
The same measure for “MAAQAAAAAQAAAAAQAAAAQAAQAEAAESWYLALLGFAEHFRTSSPPKIRLCVHCLQAVFPFKPPQRIEARTHLQLGSVLYHHTKNSEQARSHLEKAWLISQQIPQFEDVKFEAASLLSELYCQENSVDAAKPLLRKAIQISQQTPYWHCRLLFQLAQLHTLEKDLVSACDLLGVGAEYARVVGSEYTRALFLLSKGMLLLMERKLQEVHPLLTLCGQIVENWQGNPIQKESLRVFFLVLQVTHYLDAGQVKSVKPCLKQLQQCIQTISTLHDDEILPSNPADLFHWLPKEHMCVLVYLVTVMHSMQAGYLEKAQKYTDKALMRLEKLKMLDCSPILSSFQVILLEHIIMCRLVTGHKATALQEISQVCQLCQQSPRLFSNHAAQLHTLLGLYCVSVNCMDNAEAQFTTALRLTNHQELWAFIVTNLASVYIREGNRHQELYSLLERINPDHSFPVSSHCLRAAAFYVRGLFSFFQGRYNEAKRFLRETLKMSNAEDLNRLTACSLVLLGHIFYVLGNHRESNNMVVPAMQLASKIPDMSVQLWSSALLRDLNKACGNAMDAHEAAQMHQNFSQQLLQDHIEACSLPEHNLITWTDGPPPVQFQAQNGPNTSLASLL”: “failed”.
For “MAARGFRAGADHLRHQFCPPLVDPHRPWTARMKLLALSGSLRADSVNTALLRALAEAAPAGVEVCFFDGLRDLPLFNPDAEERENAAVTAWRAALRGADAVVISSPEYAHGIPGAFKNALDWVVGSAEFDGKPTLLLCASARPQHAPAQLAEVLRTMGARVQGPHLLDLPGNVAAAQSALRTPAQQAEARELLAALLP”, the protein production entry is recorded as “failed”.
The entry for “MAASMARGVSARVLLRAAGGSWGPRAGHAAVTSRTFGSTGERRAGEDEADSPELPRDVVNVVFVDRSGKRIPVRGRVGDNVLHLAQRHGVDLEGACEASLACSTCHVYVSEAHLDLLPPPEEREDDMLDMAPLLQENSRLGCQIVLTPELEGAEFALPKITRNFYVDGHIPKPH” is “failed”; for “MAASQTPARILVTGVAGNLGRKVVEALASTPWCTSIIGVDWVEQSMQFSPQAAQRLRWVVADLTQADGAWTALLDEVDAVIHLAAIHSTPDATWEQALASYGMTLNVLQAAATRGVRRFVFASSNHAMGAYKDQPLAGTIGPGRLIAELAPAPGTRWHNGIEEVYSLAYGTSKAMGERLCKAVAAVSGGRLSVVALRIGWALPDDNDPNDINHSGTADTPVPGSVPDEASRIALRWFRNMWLSNDDLRQLFIAAVTADPARWPAPAIVVNGVSNNTGMDWGLETGRALIGYEPQDDLYARLTQPA” it is “failed”.
Consider “MAASSLATQPAMKLAPDDLDSITATTLGHYQQVAEDFREGTRDHDVSQNIDALLRHIQGSAPFTVLDFGCGPGRDLQAFTRLGHVAIGLDGCERFAQMAREDSGCEVWQQDFLKLDLPAERFDGIFANAVLFHIPRQELPRVLKQLHASLKDGGVLFSSNPRGDNQEGWNGPRYGAYHDLAAWQALLTDAGFVELEHYYRPAGLPREQQPWLASVWRKA”, for which the protein production entry is on record as “failed”.
